Source: patent publication US20260151494A1 (ARO BIOTHERAPEUTICS, published 2026)
Residue numbers refer to the chain shown, from its start.

B1: CD71-binding FN3 domain SEQ ID NO 418 (designed binder)
chain: MLPAPKNLVVSRVTEDSARLSWTAPDAAFDSFEIAYFENSYYGEAIVLTVPGSERSYDLTGLKPGTEYAVYIGGVKGGSWSNPLSAISTT
B2: CD71-binding FN3 domain SEQ ID NO 429 (designed binder)
chain: B1 chain with A35G, N39R, Y41F, V47I, T49F, Y71W, S79V, N82R, S88F
B3: CD71-binding FN3 domain SEQ ID NO 440 (designed binder)
chain: MLPAPKNLVVSRVTEDSARLSWTAPDAAFDSFEIVYAEWTQHGEAIVLTVPGSERSYDLTGLKPGTEYYVHIGGVKGGKWSPPLYAIFTT
B4: CD71-binding FN3 domain SEQ ID NO 370 (designed binder)
chain: MLPAPKNLVVSRVTEDSARLSWTAPDAAFDSFYIAYAEPRPDGEAIVLVVPGSERSYDLTGLKPGTEYSVLIHGVKGGLLSSPLSAHFTT
B5: CD71-binding FN3 domain SEQ ID NO 359 (designed binder)
chain: B4 chain with Y33L, A35P, P39T, R40S, D42S, V49T, L79D, L80Y, H87I
B6: CD71-binding FN3 domain SEQ ID NO 367 (designed binder)
chain: B4 chain with V47L, S85V, H87F
B7: CD71-binding FN3 domain SEQ ID NO 374 (designed binder)
chain: B4 chain with V47Q, V49S, S85H, H87S
B8: CD71-binding FN3 domain SEQ ID NO 386 (designed binder)
chain: B4 chain with V47T, V49L, H87I
B9: CD71-binding FN3 domain SEQ ID NO 403 (designed binder)
chain: B4 chain with V49D, S85V, H87D
B10: CD71-binding FN3 domain SEQ ID NO 362 (designed binder)
chain: MLPAPKNLVVSRVTEDSARLSWTAPDAAFDSFEIAYWENNFNGEAIILIVPGSERSYDLTGLKPGTEYVVFISGVKGGTWSYPLVAQFTT
B11: CD71-binding FN3 domain SEQ ID NO 371 (designed binder)
chain: MLPAPKNLVVSRVTEDSARLSWTAPDAAFDSFDIDYVEFGWTGEAIALLVPGSERSYDLTGLKPGTEYWVWIGGVKGGDYSPPLNAYFTT
B12: CD71-binding FN3 domain SEQ ID NO 379 (designed binder)
chain: MLPAPKNLVVSRVTEDSARLSWTAPDAAFDSFYIEYWEGYRSGEAIVLTVPGSERSYDLTGLKPGTEYRVHIWGVKGGAVSYPLSAIFTT
B13: CD71-binding FN3 domain SEQ ID NO 384 (designed binder)
chain: MLPAPKNLVVSRVTEDSARLSWTAPDAAFDSFEIDYAENRHHGEAIALLVPGSERSYDLTGLKPGTEYIVFIGGVKGGRWSQPLVASFTT
B14: CD71-binding FN3 domain SEQ ID NO 397 (designed binder)
chain: MLPAPKNLVVSRVTEDSARLSWTAPDAAFDSFIILYGEAQYDGEAIVLTVPGSERSYDLTGLKPGTEYPVDIYGVKGGPYSWPLSAIFTT
B15: CD71-binding FN3 domain SEQ ID NO 402 (designed binder)
chain: MLPAPKNLVVSRVTEDSARLSWTAPDAAFDSFGIYYWEYTGGEAIVLTVPGSERSYDLTGLKPGTEYVVRILGVKGGAYSTPLSAIFTT
B16: CD71-binding FN3 domain SEQ ID NO 406 (designed binder)
chain: MLPAPKNLVVSRVTEDSARLSWTAPDAAFDSFFIDYDESLDSGEAIVLTVPGSERSYDLTGLKPGTEYNVTIQGVKGGFPSSPLEAAFTT
B17: CD71-binding FN3 domain SEQ ID NO 442 (designed binder)
chain: B3 chain with V35W, T40R, H42V, Y69N, H71D, G73H, W80V, P82W, Y85S, F88S
B18: CD71-binding FN3 domain SEQ ID NO 444 (designed binder)
chain: MLPAPKNLVVSRVTEDSARLSWTAPDAAFDSFEIDYVEFIFTGEAIGLIVPGSERSYDLTGLKPGTKYWVTIAGVKGGEWSTPLQAFFTT
B19: CD71-binding FN3 domain of SEQ ID NO: 507 (designed binder)
chain: MLPAPKNLVVSRVTEDSARLSWTAPDAAFDSFFIGYLEPQPPGEAIHLLVPGSERSYDLTGLKPGTEYNVTIQGVKGGFPSMPLSAIFTT
B20: CD71-binding FN3 domain of SEQ ID NO: 446 (designed binder)
chain: B19 chain with H47Q, L49F, M82L, S85I, I87Y
B21: CD71-binding FN3 domain of SEQ ID NO: 447 (designed binder)
chain: B19 chain with H47Y, L49Y, M82Y, S85T, I87Q
B22: CD71-binding FN3 domain of SEQ ID NO: 448 (designed binder)
chain: B19 chain with H47D, L49Y, S85Y, I87R
B23: CD71-binding FN3 domain of SEQ ID NO: 449 (designed binder)
chain: B16 chain with F33Y, D35A, D37Q, S39L, L40S, D41L, S42W, S82L, E85A, A87Q
B24: CD71-binding FN3 domain of SEQ ID NO: 450 (designed binder)
chain: B19 chain with H47S, L49F, M82E, S85A, I87K

What was measured:
[1] = target: T1, human apical domain of CD71 (human, UniProt P02786 189-383, limits assumed); experiment: primary ELISA; signal over HSA control; on RLU: test concentration or dose not given here
T1 construct: domain: apical domain
T1 sequence (P02786 189-383 limits assumed): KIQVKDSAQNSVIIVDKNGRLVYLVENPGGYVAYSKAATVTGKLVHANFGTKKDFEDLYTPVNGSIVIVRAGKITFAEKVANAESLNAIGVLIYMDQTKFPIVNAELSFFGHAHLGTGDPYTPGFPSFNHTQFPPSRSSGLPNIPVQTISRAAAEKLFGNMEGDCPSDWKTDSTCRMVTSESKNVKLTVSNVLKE

[2] = target: T2, human CD71 extracellular domain (human, UniProt P02786 89-760); experiment: primary ELISA; signal over HSA control; on RLU: test concentration or dose not given here
T2 construct: also called hCD71; CD71-ECD
T2 sequence (P02786 89-760): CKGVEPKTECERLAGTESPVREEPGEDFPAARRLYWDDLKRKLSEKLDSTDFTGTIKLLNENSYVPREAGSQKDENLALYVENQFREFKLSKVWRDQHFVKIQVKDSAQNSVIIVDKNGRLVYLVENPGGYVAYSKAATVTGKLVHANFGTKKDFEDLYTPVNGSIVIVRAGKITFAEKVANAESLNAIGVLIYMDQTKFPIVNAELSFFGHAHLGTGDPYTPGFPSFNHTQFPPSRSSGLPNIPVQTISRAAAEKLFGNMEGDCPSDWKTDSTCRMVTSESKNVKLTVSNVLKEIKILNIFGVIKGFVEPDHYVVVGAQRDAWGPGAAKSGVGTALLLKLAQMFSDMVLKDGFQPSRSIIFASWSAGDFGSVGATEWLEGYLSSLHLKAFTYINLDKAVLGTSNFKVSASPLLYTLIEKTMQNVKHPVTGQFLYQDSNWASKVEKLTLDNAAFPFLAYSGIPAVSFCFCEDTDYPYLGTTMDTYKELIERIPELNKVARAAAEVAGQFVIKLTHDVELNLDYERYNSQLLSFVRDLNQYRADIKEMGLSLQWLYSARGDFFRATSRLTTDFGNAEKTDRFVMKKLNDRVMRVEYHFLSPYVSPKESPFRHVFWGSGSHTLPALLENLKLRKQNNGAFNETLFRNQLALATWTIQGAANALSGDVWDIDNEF

[3] = target: T1, human apical domain of CD71; experiment: primary ELISA; further: test concentration or dose not given here
[4] = target: T2, human CD71 extracellular domain; experiment: primary ELISA; further: test concentration or dose not given here
[5] = target: T3, human CD71 extracellular domain (human, UniProt P02786 89-760, biotinylated); experiment: primary ELISA, RLU over HSA
T3 construct: also called hCD71; CD71-ECD
T3 sequence (P02786 89-760): as above

[6] = target: T4, apical domain of human CD71 (human, UniProt P02786 189-383, limits assumed); experiment: primary ELISA, RLU over HSA
T4 construct: domain: apical domain; Screen 4 panned on human apical domains, the ELISA text says only 'apical domain'
T4 sequence (P02786 189-383 limits assumed): as the sequence (P02786 189-383 limits assumed) above

[7] = target: T3, human CD71 extracellular domain; experiment: primary ELISA; further: test concentration or dose not given here
[8] = target: T4, apical domain of human CD71; experiment: primary ELISA; further: test concentration or dose not given here

Binder | Apical domain:HSA [1] [ratio] | hCD71:HSA [2] [ratio] | RLU [3] [RLU] | RLU [4] [RLU] | hCD71:HSA [5] | Apical domain:HSA [6] | RLU [7] [RLU] | RLU [8] [RLU]
B1 | 77 | 30 | 5.05e+06 | 1.95e+06 | – | – | – | –
B2 | 280 | 124 | 4.39e+06 | 1.95e+06 | – | – | – | –
B3 | 192 | 89 | 4.88e+06 | 2.26e+06 | – | – | – | –
B4 | 480 | 212 | 4.83e+06 | 2.13e+06 | – | – | – | –
B5 | 233 | 120 | 6.97e+06 | 3.57e+06 | – | – | – | –
B6 | 66 | 47 | 6.51e+06 | 4.62e+06 | – | – | – | –
B7 | 277 | 76 | 3.64e+06 | 1e+06 | – | – | – | –
B8 | 400 | 130 | 3.96e+06 | 1.28e+06 | – | – | – | –
B9 | 342 | 233 | 5.34e+06 | 3.64e+06 | – | – | – | –
B10 | 102 | 47 | 4.86e+06 | 2.24e+06 | – | – | – | –
B11 | 95 | 45 | 4.4e+06 | 2.08e+06 | – | – | – | –
B12 | 239 | 65 | 5.13e+06 | 1.4e+06 | – | – | – | –
B13 | 57 | 21 | 5.55e+06 | 2.04e+06 | – | – | – | –
B14 | 84 | 25 | 5.57e+06 | 1.65e+06 | – | – | – | –
B15 | 459 | 209 | 4.77e+06 | 2.17e+06 | – | – | – | –
B16 | 478 | 185 | 3.68e+06 | 1.42e+06 | – | – | – | –
B17 | 217 | 172 | 6.23e+06 | 4.92e+06 | – | – | – | –
B18 | 89 | 48 | 5.12e+06 | 2.8e+06 | – | – | – | –
B19 | – | – | – | – | 178 | 245 | 3.52e+06 | 4.83e+06
B20 | – | – | – | – | 37 | 42 | 4.75e+06 | 5.51e+06
B21 | – | – | – | – | 152 | 136 | 5.86e+06 | 5.25e+06
B22 | – | – | – | – | 74 | 74 | 4.73e+06 | 4.76e+06
B23 | – | – | – | – | 69 | 66 | 6.75e+06 | 6.51e+06
B24 | – | – | – | – | 166 | 253 | 4.1e+06 | 6.26e+06
